Experimental data published in the domain aggregation screens of Martell et al. (2025).

Experiment: soluble fraction after stress (log2 fold change); higher = more stays soluble; pooled small domains, quantitative proteomics
Conditions: stress: 75 degC
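Also: 20 min heating vs room temperature control held 20 min.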

| Sequence | soluble fraction (log2) |
| --- | --- |
| HMTNVFSIIGKKALVIKDIDPIHSSGQIKLNGEVWSAETENDEIIKEGSEVEVLKINGVKAIVKLV | -0.664 |
| HMTNVIPKAMAPFNGSTIIADGIKNIKDHIDNLYITVGYKGATLSEHVINKGVSAVFNTTGKGNAWWVYN | 0.343 |
| HMTNVLSEQESKLLERMNKAGLNAEITVKKAAQILNLSESAARNVLNRLVGKGYLTVDTSRLPFLFQR | -0.277 |
| HMTNVVSKNKAKEIAMNIINDTVLQGQTAATFKEIVKANGVYVVKIEIQGQEYTSYITKDGKIVFPYGVEV | -1.07 |
| HMTNYSFIVNENFNNKRIDQVVANHYPKISRTKVNKIIKNNLLKLNGSTFNDPSAKVKLGDQIEFENL | 0.434 |
| HMTPAKQVSAKAERWIDQLGSSDWEKREEAAAELKKLGGAAKSALEKALKNADPEVASKAEELLEALES | 0.19 |
| HMTPATVVIPKVAGQTVAEAKETLKNANFEIGEEKDESSDTVEEGRVIRTDPESGTNRKEGTKINLIVSS | 0.0198 |
| HMTPFVINVDRHGAVIINEKTVDIDEAVVLARQERSQGKSILLAGDKKAPYEAIIRVLDALKQAG | -0.758 |
| HMTPNATWQDDAQNLLRDLIQHQPVLVQISAAKRLRDQAEQISRITGGETVTREHVEAAGHALGMGVT | 0.209 |
| HMTPNRDDEHLQSLRDYYASNRRIPSLQRIAALLGFSSRSAAVKLMGRLADEGFVERTVDDDAWIPGSRFF | -1.14 |
| HMTPQDYEYLRKLLKDQSGLDLSVDKQYLLESRLVPLSRKAGLAGIPELVQKMKAGSASLTAQVVEAMTT | -0.11 |
| HMTPVFGEEETVLQAAVRGIISDTDQWTMEAEAKSMLNQLGFSDYEEKMAHMSGGQKKRVALVNALLTP | 0.116 |
| HMTQDFEPGGQVFSRGEWLTIIRVNKSNGAVSSVTTPNYSFLGYSGTMKVTPDRITDYKAPSAEEAAVAS | -0.451 |
| HMTQGRVTGDGVNVRSQPNTDSAILTRVSTGKVVELISLKDNWYNVVVNGTKGYIRADYVSPYDG | -0.904 |
| HMTQLPEVPVERGMVLEEVQSGWVGAVTRVEKSGGMHVVALEDRRGKSRSFRLGFGFLLEGQPIRLMPPAP | -1.89 |
| HMTRAETPMAFIRAMVEAYTERGLDPNQALRKAQITPSQLKSTNARVTTLQMEWMSETAMREL | -0.292 |
| HMTRDAQLAALERLMDDPSPVVRKAVLKGVQAAGTEGLLWLQQLSKNQTLGPYALALLTELR | -0.72 |
| HMTRNGTVTFFNHDKGYGFIKDVLTQESVFVHINSLSEPINEQNKVSFEIEMGPRGSNAINVKLI | -1.65 |
| HMTRTEYMAQLEKYLKKLPHKEFQEAITFFNEYFDEAGPEKETAIMEELGSPKEAASELITNILNRHI | -0.433 |
| HMTRTISKVAKELAINIETVRFYERRGLIEQPPKPELGYRHYPDETVNRIRFIKRAQELGFTLEEIANLLS | -1.66 |
| HMTRVDALDQLAAIRFSSHIFAEDQDLRMVVVDGQRIGEGDIVRDEIRLEQITETGVIFEYQGERFPIDV | -1.45 |
| HMTRYQHLAMLLEKRIAQGLYRNGERLPSVRSLSAEHGVSISTVQQAYYLLEQKQLIIPQSRSGYYVAPH | -4.46 |
| HMTSEVPVGSNVRIRASTLAGERDFEGTMLPPAGEGLTTLKLVNGYNLSYPSKDVLDIEFLGGAGE | 0.14 |
| HMTSHPTHTILDGKVHVFMRDGSPFWWGGFHFKGKYLRTSTKQKNLDSAKTIAQQWYFQKQTEIASGE | -2.85 |
| HMTSKVTVLAVNGRITVSGKEQDETVSVYDTGGRLLYQGESDVINVPRKAMYIVTVSRKSYKVIV | -1.52 |
| HMTSLAGIERFLASGAIAGVGEAMAHRLVQKFGKETLEIIEKKPSRLTEVAGVGKKTAAKIHASYMEK | -0.344 |

| Sequence | soluble fraction (log2) |
| --- | --- |
| HMTSLGLEGLVNTTAIATSDLRPSGWALAGERKIFVVSEGEFIDNGDKIRILTVDGNRIVVRKETNK | -0.477 |
| HMTSLTSDEEQIINVLRAEESVYINALATKSKIPLQKLLGLLIQLEFKGLIHSLPGSHYKIV | -0.221 |
| HMTSNIIIVPNVVGMTKEQATAALAAAGLNIKLSGVETTDTAAVAVKQKPSANTKVEEGSVVTVEFDLK | ≥ 1.04 |
| HMTSPKSRIVSALLASPSRPEELAMRLGEDILTLMRTLTDFEASGIIQRLPDGRYTPTREYHLGLVDK | -0.12 |
| HMTSPRRLYALIVEHVGKDGVMHRSDVENVLAKVESEMDVDDLLDQLEINGTIIRRQDGTWQLL | -0.716 |
| HMTSRFITTEEGTLYVDADGRKVSGWQTIDGSRYYFDEHGIRQSGTIEVNGETYVLDEDGVL | 0.0516 |
| HMTSRWEIGYNVAKKYYDEHGNLDVERAVYDNFELKKWLNTQRYKNSAGTLAEKYKIKLDELGMNWER | -0.214 |
| HMTSSQLYLIEEDMEGERLDAFLAEVIADLSRTAIKDLISNGRVLVDGQARKPSYRVKEGEQVLIHVPEAR | -0.392 |
| HMTSVFQNSDGTWGHLTKTVNPLIYTIEYGRRTGFSSREEAEESYQRSLTSYQDQLSKLKKERD | 0.297 |
| HMTSVPGTVVTNANLRGGPGTNYPIVGKAPAGTTVNVVESTADRTWYYLDTGSWIAAFLVKLS | -0.33 |
| HMTSVRVPVKKEIWFWAIKESQRDLNEILARFPKMDKWINQEENPTFNQLEKVAKFLRVPFGYMFLDKPPK | -1.86 |
| HMTTETGTVKWFNEGKGFGFIAPDGGGKDLFAHFKEIQGSGFKTLTENQRVQFEVTQGQKGPQASNIRTL | 0.227 |
| HMTTHEQVAILRRELNGLVGAWHHRTGQAHGVTHSKLRKELGGPPAAVASAAQLSARIEKIRQWAT | -0.922 |
| HMTTIAQMTGPQRAAVILLVLGEDHGRTIWQEFDDDEIRIITRAMAELGTVDADEVERLMLDFVGKLSS | -2.67 |
| HMTTIAQNISNYRTRANMTQQQVADKLSVSHHTVSKWELGINTPSVEDMQKLAQVFGVTITELVVD | -0.652 |
| HMTTIHVDPEKISKIIGPGGKTIKKIVEETGAKIDIEEDGRVYIAAVNSEEAAKAIDMINGI | 0.0704 |
| HMTTIPAGRQQYILSLIRREGTVTVSRLAQELEVSELTIRRDLDQMAARNLVERTHGGATERR | -1.53 |
| HMTTKEEAAYQAIRSAIIDGELKPGQSVTIRDLASRFDLGRTPITDAMKHLALDGWLETTTGVGTRV | -0.183 |
| HMTTLAADFNSDGRVDIGDLSILAGNWGKSRTNEVDFNKYGDADYNGRIDIIDLSILATQFGQTDNSN | 0.321 |
| HMTTLDTVARQLRDRIREQLDPTGEMSDESLLRTIEEAVYRYSSSGHVLTANEKETVIRRIFHSFR | 0.042 |
| HMTTMNSADLIKELEKAGWTLRGVKGSHHIYTHPARGGHLSVPHPKKDLGAGLARQLRKQAGL | -0.032 |
| HMTTPAAISKIKKLEEAKRLLATTTYSMKEIAVKLKYKSHTHFGMDFKNNTGMTPAEYRKAIKAKREKQMN | -1.96 |
| HMTTQERVSYSAFINDVETGRVAKVVISGYTIEGTRTNNSSFVTERPYGVDSNLSEVLMQNSVSIEGKA | -0.122 |
| HMTTQVNTVKIQLANGYEMTVLTSKTNVKEILEDNNIILENNEKVTPNIDEEISSNKTIKITDKSN | 0.055 |
| HMTTTSGLIKTIQTGRRKLGMDDETYRALLADVSGGKTSSKDLNAYQLKEVLRRMREAGFRS | 0.58 |
| HMTVDAVALGRRVRHLRKQAGLTLDQLAERTGVSGSHLSLVENARREPRLSLVQRIAEVLGVPVEDL | -1.49 |

| Sequence | soluble fraction (log2) |
| --- | --- |
| HMTVGEKIQYYRKKIGLSQEELGQKMLLSRQTISLWEMDKTLPTVDNLLRLKEIFSVSIDELLSENEPK | -1.31 |
| HMTVKNFNDLPGFKNENLAELKAMGITTISELAEALNDGGKIKEIIKNLSGVGPKTAEKWKDAIG | ≥ 1.04 |
| HMTVKVPDLRGKTLAEMQRILDDAGLKYEINDSTFSRTAIPGTVREVIPAPGSEVKLGRILFIAINGF | -2.19 |
| HMTVLIDEQSSDGLLKITVTANTAVKSITIADELLEDKEQLEDYLILVLNKAIARANQVNQTELDAVAK | 0.0536 |
| HMTVPAGIVLSSIRQDGDVLHIRGTAQSTERLNFFRNSFSASWGSPAQNGKRKADPVTGLVDFTISLK | -0.758 |
| HMTVPMKILILEDEQRNAMRLIRLLNDIDTTFIIEGPLTNIKEAVDFFQSGKTTDLILADIRL | -0.254 |
| HMTVSADQTTADAVIKLIDAIGTVSKNSGSAISAARSGYDALTDAQKKLVTNYNKLTQAEQVFSSLS | 0.494 |
| HMTVSLTDVPFVPEILDRLERPELDVLLAILNGATNTFDLAAKTGRSRDELDEVLDRLTTLGLIER | -0.532 |
| HMTVTLTTLRNGSTGAQVKTLQRLLSAMDYYNGETDGKFGISTAAAVKAFQRAKRLTVDGIVGKNTWTALL | -1.2 |
| HMTVTMADISQAYNEKRYLTTISLSNTYLTFAKPTTELLSIRYRTYFIIGKYAESLTEIAKL | 0.294 |
| HMTVTTDITQYFLQENGLLNGPNARQLRQKIGETLNIGYTNGKQLLKRAQQFGLTRDQILTALKK | -0.638 |
| HMTVVIKVQASQLESWKSSAGTEIKAKLIAVEDEKTYLFVTETGKTIRATAAQLDESSVSRARKLAGL | -2.37 |
| HMTYGYFELKAKNLDSLKQFLKGIAQVESIEEENNGLKVFLKNELESEELSEKLAEAKIFVSHLAKKK | -0.265 |
| HMTYKPAADFKPSDTSSLKEGMKVEHPKFGFGTVMKMEEVGTERKARINFADFGEKTLLLSFAKLKIHEN | -0.256 |
| HMTYNEYPEKEMQDLIDKSISQQEQAASQYGYSLGDYVTARYGFQSESDFREYVQGLAEDYMKEKI | -0.476 |
| HMTYQHQSIIHRRTRGAILTAAKELLAESGISGTNMIEIADRAQVSRASLYNHFRDKHEVFLALVES | -0.591 |
| HMTYSAWIEKAYSELEKKGITEAELSDALDKRGINLEDLKLMGPDEAVKYQSEVEGVVLELSKSKE | 0.154 |
| HMTYSEEEIERDLYVRGTLYQIGDLVENKIDGTSGEIVRRGPNYVQYSDGENFYKAFLHSIQEV | 0.0161 |
| HMTYTMVAYGSQGDAVRQLQSELNRHGYQLDEDGVFGKKTRAAVRDYQKKNSLRLDGIAGDETWGSLLA | 0.696 |
| HMTYTPRAGSLASQVIGFFRHNPDEELLLDDITDKFDATRGNIHTLLAEAVRFKLLARYRNDDGDYVYKPG | -3.06 |
| HMVAADTVQVPDVTGKTVADAKQALISAGLQVGTVTAKDGKETANTILETSPAAGTSVDKGSKVNLVYSTG | 0.00808 |
| HMVAAITDLPVKSVNGRQMYYYVVRKGETVYSLTHTLGITHDRLVKANRSVEDGLRAGQILYFPVSEFG | -2.95 |
| HMVAELAEMAENKNITSAQLALAWILKQSENIIPIPGTKRIKYLNENIEAVNVDLSKEDVENIENLLRKYP | -0.104 |
| HMVAGHLQEKNGQFYAVLSYKDTKGKRRTKWVPTGLMVRGNKKRAEAMLNDIRRKFVPPEQED | -0.474 |
| HMVAGPDEPLSDREQGVLDLLAEGLSNKAISKQLGISVATVKSHLSNIYGKLQAENRMQAVARARELGLM | ≥ 1.04 |
